The target of experiment [1] is T1, Recombinant IL-17A/F heterodimer (IL-17A and IL-17F linked by a GS linker) (human).
T1 construct: also called heterodimer A/F; human recombinant IL-17A/F heterodimer
Nature of the experiment: Biacore 3000 SPR, 25 C, antibody captured by anti-mouse IgG Fc, cytokine titrated from 25 nM.
Method: All experiments were performed at 25° C. Affinipure F(ab′)₂ fragment goat anti-mouse IgG, Fc fragment specific (Jackson ImmunoResearch) was immobilised on a CMS Sensor Chip (Biacore AB) via amine coupling chemistry to a capture level of ≈6000 response units (RUs). HBS-EP buffer (10 mM HEPES pH 7.4, 0.15 M NaCl, 3 mM EDTA, 0.005% Surfactant P20, Biacore AB) was used as the running buffer with a flow rate of 10 μL/min. […] The surface was regenerated at a flowrate of 10 uL/min by a 10 μL injection of 40 mM HCl, followed by a 5 μL injection of 5 mM NaOH.
Double referenced background subtracted binding curves were analysed using the BIAevaluation software (version 3.2) following standard procedures. Kinetic parameters were determined from the fitting algorithm.

In a further experiment the target is T2, IL-17C (UniProt Q9P0M4 19-197).
T2 sequence (looked up): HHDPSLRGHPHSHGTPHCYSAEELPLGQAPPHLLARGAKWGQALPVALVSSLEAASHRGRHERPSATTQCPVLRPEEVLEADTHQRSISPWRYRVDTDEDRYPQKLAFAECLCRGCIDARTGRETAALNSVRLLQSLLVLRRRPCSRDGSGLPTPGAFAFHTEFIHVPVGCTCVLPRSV
Nature of the experiment: Biacore 3000 SPR, antibody captured by anti-human IgG Fc. (In general: SPR reads the build-up and loss of mass on a sensor chip optically.)

Another experiment has as its target T3, IL-17D (UniProt Q8TAD2 18-202, limits assumed).
T3 sequence (looked up): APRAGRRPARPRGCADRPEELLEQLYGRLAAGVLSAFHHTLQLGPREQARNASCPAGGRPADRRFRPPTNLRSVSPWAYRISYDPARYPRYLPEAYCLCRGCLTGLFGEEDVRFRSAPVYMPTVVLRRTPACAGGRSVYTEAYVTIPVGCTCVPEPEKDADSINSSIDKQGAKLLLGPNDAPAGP
Described as above.

Another experiment deals with T4, IL-17E (UniProt Q9H293 33-177).
T4 sequence (looked up): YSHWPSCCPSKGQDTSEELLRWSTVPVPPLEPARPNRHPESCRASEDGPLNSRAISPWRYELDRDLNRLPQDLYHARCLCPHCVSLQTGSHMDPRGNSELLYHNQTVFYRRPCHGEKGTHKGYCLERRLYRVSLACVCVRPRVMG
Described as above.

In another experiment the target is T5, IL-17B (UniProt Q9UHF5 21-180).
T5 sequence (looked up): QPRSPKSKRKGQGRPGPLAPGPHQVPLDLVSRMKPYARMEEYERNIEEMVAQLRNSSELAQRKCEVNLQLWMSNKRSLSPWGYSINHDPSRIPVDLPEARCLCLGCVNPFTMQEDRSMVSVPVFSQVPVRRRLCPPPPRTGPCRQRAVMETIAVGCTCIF
The experiment is described as above.

T1 sequence (chain, as listed by the source limits assumed): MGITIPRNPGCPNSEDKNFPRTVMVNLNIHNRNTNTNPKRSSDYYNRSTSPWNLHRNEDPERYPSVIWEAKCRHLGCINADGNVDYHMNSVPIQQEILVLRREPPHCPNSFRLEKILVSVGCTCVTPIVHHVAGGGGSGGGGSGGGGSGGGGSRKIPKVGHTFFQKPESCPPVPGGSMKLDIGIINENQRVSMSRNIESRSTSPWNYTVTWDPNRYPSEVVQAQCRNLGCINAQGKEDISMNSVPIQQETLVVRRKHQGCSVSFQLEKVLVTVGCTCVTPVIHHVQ
Method for IL-17B: (§1) All experiments were performed at 25° C. Affinipure Fc Fragment goat anti-human IgG, Fc fragment specific (Jackson ImmunoResearch) was immobilised on a CMS Sensor Chip via amine coupling chemistry to a capture level of ≈6000 response units (RUs). HBS-EP buffer (10 mM HEPES pH 7.4, 0.15 M NaCl, 3 mM EDTA, 0.005% Surfactant P20, Biacore AB) was used as the running buffer with a flow rate of 10 μl/min. […] The surface was regenerated by a 30 μL injections of 40 mM HCl, followed by one 5 μL injection of 5 mM NaOH.
(§2) Background subtraction binding curves were double referenced and analysed using the BIAevaluation software (version 3.2) following standard procedures. Kinetic parameters were determined from the fitting algorithm.
Method for IL-17C: as §1, §2
Method for IL-17D: as §1, §2
Method for IL-17E: as §1, §2

B1: Antibody CA028-0496 (murine IgG1 constant regions) (antibody, V domains shown)
VH: EVQLVESGGGLVQPGGSLRLSCAASGFTFSDYNMAWVRQAPGKGLEWVATITYEGRNTYYRDSVKGRFTISRDNAKNSLYLQMNSLRAEDTAVYYCASPPQYYEGSIYRLWFAHWGQGTLVTVSS
VL: AIQLTQSPSSLSASVGDRVTITCRADESVTTLMHWYQQKPGKAPKLLIYLVSNRESGVPSRFSGSGSGTDFTLTISSLQPEDFATYYCQQTWSDPWTFGQGTKVEIKR
notes: captured by anti-mouse IgG Fc
Broadly, the Kd is the free concentration of one partner at which half of the binding sites on the other are occupied at equilibrium, for simple one-to-one binding. For B1, the Kd in experiment [1] was 0.116 nM.

B2: Antibody CA028-0496 (human IgG4 constant regions) (antibody, V domains shown)
VH: B1 VH
VL: B1 VL
notes: human gamma-4 constant region with hinge mutation S241P and human C-kappa (Km3), made in CHO cells; also called CA028496
In the case of B2, the binding result with IL-17C, in the experiment with IL-17D, with IL-17E and with IL-17B was “no binding” in each case.

Values taken from patent publication US20150315272A1 (published 2015).
